Where two headings read alike, the source gives them in different places.

Experiment [1] concerns the target CAT-2200 lambda light chain K129T_V133D. As to the kind of experiment: LCCA, SPR.
Experiment [2] has the same target. Kind of experiment: LCCA, SPR. The source holds these as a separate data set.
Experiment [3] deals with CAT-2200 lambda light chain E124Q_T131K. Kind of experiment: LCCA, SPR.
Experiment [4] deals with Pertuzumab kappa light chain S176E_T178E. As to the kind of experiment: LCCA, SPR.
The target of experiment [5] is Pertuzumab kappa light chain S131D_V133G_T178F. As to the kind of experiment: LCCA, SPR.
The target in experiment [6] is CAT-2200 lambda light chain E124Q_T131R. Kind of experiment: LCCA, SPR.
The target of experiment [7] is Pertuzumab kappa light chain S131E_V133G_T178F. As to the kind of experiment: LCCA, SPR.
The target in experiment [8] is CAT-2200 lambda light chain Y178K. As to the kind of experiment: LCCA.
Experiment [9] concerns the target Pertuzumab kappa light chain L135W_S176E_T178E. As to the kind of experiment: LCCA.
Experiment [10] addresses CAT-2200 lambda light chain E124Q_T131R. As to the kind of experiment: LCCA, SPR tag read-out.
Experiment [11] addresses Pertuzumab kappa light chain V133I_S176D_T178E. Kind of experiment: LCCA, SPR.
Experiment [12] addresses Pertuzumab kappa light chain S176E_T178E. Kind of experiment: LCCA, SPR. This is another data set of the same source.
For experiment [13], the target named is Pertuzumab kappa light chain S131D_V133G_T178F. As to the kind of experiment: LCCA, SPR. The source holds these as a separate data set.
The target of experiment [14] is Pertuzumab kappa light chain S131E_V133G_T178F. Kind of experiment: LCCA, SPR. This is another data set of the same source.
Experiment [15] addresses CAT-2200 lambda light chain E124Q_T131R. Kind of experiment: LCCA, SPR tag read-out. This is another data set of the same source.
Experiment [16] deals with Pertuzumab kappa light chain S131D_V133G_L135W_T178F. As to the kind of experiment: LCCA, SPR tag read-out.
Experiment [17] has as its target Pertuzumab kappa light chain V133I_L135W_S176D_T178E. Kind of experiment: LCCA, SPR tag read-out.
Experiment [18] has as its target CAT-2200 lambda light chain E124Q_T131R. Kind of experiment: LCCA, SPR. This is another data set of the same source.
Experiment [19] concerns the target Pertuzumab kappa light chain V133L_S176D_T178E. Kind of experiment: LCCA, SPR.
Experiment [20] shares this target. As to the kind of experiment: LCCA, SPR. This is another data set of the same source.
Experiment [21] concerns the target CAT-2200 lambda light chain E124Q_T131R. Kind of experiment: LCCA, SPR. This is another data set of the same source.

Consider CAT-2200 Fab heavy chain L143K, for which the H1L1:H1L2 normalized median scalar value ln(r1/f1) amounted to 0.9 in experiment [1] and 1.55 in experiment [2].

Regarding Pertuzumab Fab heavy chain S188K, the H2L2:H2L1 normalized median ratio in experiment [3] was found to be 15%; in [6], 16%; in [7], 85%; in [8], 8%; in experiment [9], 92%; in experiment [10], 15%. In addition, the H2L2:H2L1 normalized median ratio in [11] was 91%; in experiment [14], 84%; in [15] it was 12%; in experiment [16] it was 85%; in [17] it was 88%; in experiment [18], 9%. In addition, the H2L2:H2L1 normalized median scalar value ln(r1/f1) in experiment [4] is 2.71; in [5], 1.5; in experiment [7] it was 1.7; in [11], 2.33; in experiment [12], 2.75; in experiment [13], 2.22. For the same substance, the H2L2:H2L1 normalized median scalar value ln(r1/f1) in experiment [14] is 1.67. Besides, the H2L2:H2L1 median scalar value in [9] is 2.55 ln; in experiment [16] it was 1.72 ln(ratio); in [17] it was 2.03 ln(ratio).

As for Pertuzumab Fab heavy chain V177I_S188K, the H2L2:H2L1 normalized median scalar value ln(r1/f1) in [19] was found to be 2.15; in experiment [20] it was 2.3. Further, the H2L2:H2L1 normalized median ratio in experiment [21] came out at 9%.

These data come from patent US20190338048A1.
